{"source": "paper PMC12391449", "about": "“Hepatitis C virus NS3 helicase contributes to (−) strand RNA synthesis”", "target": "NS3h wt (NS3 helicase domain) (Hepatitis C virus JFH1 (genotype 2a), UniProt Q99IB8 1218-1662)", "sequence (Q99IB8 1218-1662)": "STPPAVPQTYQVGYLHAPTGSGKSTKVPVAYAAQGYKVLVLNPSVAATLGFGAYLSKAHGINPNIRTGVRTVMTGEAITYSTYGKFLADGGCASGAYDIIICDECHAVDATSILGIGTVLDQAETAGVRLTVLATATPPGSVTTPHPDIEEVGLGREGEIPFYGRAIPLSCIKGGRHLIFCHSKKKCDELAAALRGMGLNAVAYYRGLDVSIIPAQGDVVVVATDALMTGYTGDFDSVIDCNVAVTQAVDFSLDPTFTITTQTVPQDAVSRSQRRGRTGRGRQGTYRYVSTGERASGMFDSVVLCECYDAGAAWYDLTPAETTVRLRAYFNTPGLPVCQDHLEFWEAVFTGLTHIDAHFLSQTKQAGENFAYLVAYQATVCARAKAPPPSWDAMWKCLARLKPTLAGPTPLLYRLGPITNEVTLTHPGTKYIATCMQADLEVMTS", "assay": "fluorescence polarization; probe; Kd of 5 nM only assumed for fit; FP competition: 15 nM NS3h, 15 nM Cy5-dT15, 25 mM MOPS pH 7.5, 1.25 mM MgCl2, 0.0025 mg/ml BSA, 0.005% Tween20, 0.025 mM DTT, 0-2000 nM competitor, 20 min, 23 C", "settings": "protein: recombinant; tags: C-terminal His tag; label: 5' Cy5", "data": [{"binder": "TTTTTTTTTTTTTTT (ssDNA)", "note": "[Cy5-dT15]", "values": [{"measurement": "binding result", "value": "binds"}]}]}
